Assay results taken from US20180346602A1.
Changes are numbered by the printed parent chain. Each block holds one binder with its values, some of them ahead of it.

What was measured:
[1] = target: anti-VEGF/ANG2 antibody (IgG1 subclass with mutations P329G/L234A/L235A/I253A/H310A/H435A) [IgG part: P01857]; assay: sandwich ELISA in serum; capture M1.3.17, tracer M1.7.24; anti-VEGF/ANG2 antibody 625 ng/mL
[2] = target: anti-VEGF/ANG2 antibody (IgG1 subclass with mutations P329G/L234A/L235A/I253A/H310A/H435A) [IgG part: P01857]; assay: sandwich ELISA in serum; capture M1.3.17, tracer M1.7.24; anti-VEGF/ANG2 antibody 78.125 ng/mL
[3] = target: anti-VEGF/ANG2 antibody (IgG1 subclass with mutations P329G/L234A/L235A/I253A/H310A/H435A) [IgG part: P01857]; assay: bridging ELISA; biotinylated and digoxigenylated anti-VEGF/ANG2 antibody bridged by M1.3.17 at 250 ng/mL
[4] = target: anti-VEGF/ANG2 antibody (IgG1 subclass with mutations P329G/L234A/L235A/I253A/H310A/H435A) [IgG part: P01857]; assay: bridging ELISA; biotinylated and digoxigenylated anti-VEGF/ANG2 antibody bridged by M1.3.17 at 15.625 ng/mL
[5] = target: anti-VEGF/ANG2 antibody (IgG1 subclass with mutations P329G/L234A/L235A/I253A/H310A/H435A) [IgG part: P01857]; assay: bridging ELISA; biotinylated and digoxigenylated anti-VEGF/ANG2 antibody bridged by M1.3.17 at 3.90625 ng/mL
[6] = target: anti-VEGF/ANG2 antibody (IgG1 subclass with mutations P329G/L234A/L235A/I253A/H310A/H435A) (human) [IgG part: P01857]; assay: sandwich ELISA in serum; M1.3.17-Bi capture on SA plate; tracer anti-human kappa M1.7.10-Dig; analyte 1.25 ng/mL
[7] = target: anti-VEGF/ANG2 antibody (IgG1 subclass with mutations P329G/L234A/L235A/I253A/H310A/H435A) (human) [IgG part: P01857]; assay: sandwich ELISA in serum; M1.3.17-Bi capture on SA plate; tracer anti-human kappa M1.7.10-Dig; analyte 0.3125 ng/mL
[8] = target: anti-VEGF/ANG2 antibody (IgG1 subclass with mutations P329G/L234A/L235A/I253A/H310A/H435A) (human) [IgG part: P01857]; assay: sandwich ELISA in serum; M1.3.17-Bi capture on SA plate; tracer anti-human kappa M1.7.10-Dig; analyte 0 ng/mL (blank)
[9] = target: cytokine (IL-2) antibody conjugate with the mutations P329G, L234A, L235A, I253A, H310A, and H435A; assay: sandwich ELISA in serum; capture anti-IL2 antibody, tracer M1.7.24; conjugate 2500 ng/mL
[10] = target: cytokine (IL-2) antibody conjugate with the mutations P329G, L234A, L235A, I253A, H310A, and H435A; assay: sandwich ELISA in serum; capture anti-IL2 antibody, tracer M1.7.24; conjugate 156.25 ng/mL
[11] = target: cytokine (IL-2) antibody conjugate with the mutations P329G, L234A, L235A, I253A, H310A, and H435A; assay: sandwich ELISA in serum; capture anti-IL2 antibody, tracer M1.7.24; conjugate 78.125 ng/mL
[12] = target: cytokine (IL-2) antibody conjugate with the mutations P329G, L234A, L235A, I253A, H310A, and H435A; assay: sandwich ELISA in serum; capture anti-IL2 antibody, tracer M1.7.24; conjugate 39.0625 ng/mL
[13] = target: anti-VEGF/ANG2 antibody (IgG1 subclass with mutations P329G/L234A/L235A/I253A/H310A/H435A) [IgG part: P01857]; assay: sandwich ELISA in serum; capture M1.7.10-Bi, tracer M1.7.24-Dig; anti-VEGF/ANG2 antibody 5 ng/mL
[14] = target: anti-VEGF/ANG2 antibody (IgG1 subclass with mutations P329G/L234A/L235A/I253A/H310A/H435A) [IgG part: P01857]; assay: sandwich ELISA in serum; capture M1.7.10-Bi, tracer M1.7.24-Dig; anti-VEGF/ANG2 antibody 10 ng/mL
[15] = target: anti-VEGF/ANG2 antibody (IgG1 subclass with mutations P329G/L234A/L235A/I253A/H310A/H435A) [IgG part: P01857]; assay: sandwich ELISA in serum; capture M1.7.10-Bi, tracer M1.7.24-Dig; anti-VEGF/ANG2 antibody 2.5 ng/mL
[16] = target: anti-VEGF/ANG2 antibody (IgG1 subclass with mutations P329G/L234A/L235A/I253A/H310A/H435A) [IgG part: P01857]; assay: sandwich ELISA in serum; capture M1.7.10-Bi, tracer M1.7.24-Dig; anti-VEGF/ANG2 antibody 1.25 ng/mL
[17] = target: anti-VEGF/ANG2 antibody (IgG1 subclass with mutations P329G/L234A/L235A/I253A/H310A/H435A) [IgG part: P01857]; assay: sandwich ELISA in serum; capture M1.7.10-Bi, tracer M1.7.24-Dig; anti-VEGF/ANG2 antibody 0.3125 ng/mL
[18] = target: anti-VEGF/ANG2 antibody (IgG1 subclass with mutations P329G/L234A/L235A/I253A/H310A/H435A) [IgG part: P01857]; assay: sandwich ELISA in serum; capture M1.7.10-Bi, tracer M1.7.24-Dig; anti-VEGF/ANG2 antibody 0.15625 ng/mL
[19] = target: anti-VEGF/ANG2 antibody (IgG1 subclass with mutations P329G/L234A/L235A/I253A/H310A/H435A) [IgG part: P01857]; assay: sandwich ELISA in serum; capture M1.7.10-Bi, tracer M1.7.24-Dig; anti-VEGF/ANG2 antibody 0.078125 ng/mL
[20] = target: anti-VEGF/ANG2 antibody (IgG1 subclass with mutations P329G/L234A/L235A/I253A/H310A/H435A) [IgG part: P01857]; assay: sandwich ELISA in serum; capture M1.7.10-Bi, tracer M1.7.24-Dig; anti-VEGF/ANG2 antibody 0.0390625 ng/mL

signal [OD405 nm] [1]: 1.13 OD405 nm
signal [OD405 nm] [2]: 0.301 OD405 nm
signal [OD405 nm] [3]: 0.15 OD405 nm
signal [OD405 nm] [4]: 0.05 OD405 nm
signal [OD405 nm] [5]: 0.045 OD405 nm
signal [OD405 nm] [6]: 0.573 OD405 nm
signal [OD405 nm] [7]: 0.181 OD405 nm
signal [OD405 nm] [8]: 0.074 OD405 nm
B1: anti-variant (human) Fc-region antibody M1.3.17 (antibody, V domains shown)
VH: EVKLLESGGGLVQPGGSLKLSCAASGIDFRRYWMNWVRQAPGKGLEWIGEIDPDSSTINYTPSLKDKFIISRDNAKNTMYLQMRKVRSEDTALYYCARPYDYGAWFAYWGQGTLVTVSA
VL: QAVVTQESALTTSPGETVTLTCRSTTGAVTTSNYANWVQEKPDHLFTGLIGGTNKRAPGVPARFSGSLIGDKAALTITGAQTEDEAIYFCALWYSDHWVFGGGTKLTVL

signal [OD405 nm] [9]: 2.35 OD405 nm
signal [OD405 nm] [10]: 0.253 OD405 nm
signal [OD405 nm] [11]: 0.152 OD405 nm
signal [OD405 nm] [12]: 0.101 OD405 nm
signal [OD405 nm] [13]: 2.17 OD405 nm
signal [OD405 nm] [14]: 2.76 OD405 nm
signal [OD405 nm] [15]: 1.44 OD405 nm
signal [OD405 nm] [16]: 0.847 OD405 nm
signal [OD405 nm] [17]: 0.261 OD405 nm
signal [OD405 nm] [18]: 0.147 OD405 nm
signal [OD405 nm] [19]: 0.096 OD405 nm
signal [OD405 nm] [20]: 0.072 OD405 nm
B2: anti-variant (human) Fc-region antibody M1.7.24 (antibody, V domains shown)
VH: B1 VH with I27F, R30S, D52T, M79L, R84I, A97V, Y108S
VL: B1 VL with T25S, D96N
